From US20210395743, “SELF-ASSEMBLING NUCLEIC ACID SURFACES FOR BIOSENSOR APPLICATIONS” (INSTITUT NATIONAL DE LA RECHERCHE SCIENTIFIQUE, published 2021)

Target: PDGF-BB (UniProt P01127 P01127:82-190)
Experiment: SPR; aptamer on DNA honeycomb on gold; phosphate buffer 137 mM NaCl, 2.7 mM KCl, 1 mM MgCl2, pH 7.4
Conditions: chain copies: 2 (homodimer, inferred)
Experimental: The sensing surface was then exposed to the Platelet-derived growth factor aptamer which had been modified, as in Table III (SEQ ID NO:16), to include a 25 bp poly A tail at a concentration of 50 nM in 10 mM Tris pH 7.4 1 M NaCl 1 mM EDTA and incubated for an hour.
The sensing surface was washed with 10.1 mM Na₂HPO₄, 1.8 mM KH₂PO₄, 137 mM NaCl and 2.7 mM KCl, 1 mM MgCl2, pH 7.4. Detection of PDGF was performed in the same buffer where the surface was exposed to increasing concentrations of the ligands and response was recorded.

PDGF-BB, sequence (P01127 82-190, one chain of several): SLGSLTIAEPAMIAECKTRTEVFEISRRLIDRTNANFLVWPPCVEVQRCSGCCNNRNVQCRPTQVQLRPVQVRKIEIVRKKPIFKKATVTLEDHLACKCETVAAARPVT

B1: PDGF-BB aptamer with 25-nt poly A tail (SEQ ID NO: 16), on honeycomb DNA scaffold (ssDNA)
DNA: CACAGGCTACGGCACGTAGAGCATCACCATGATCCTGTGAAAAAAAAAAAAAAAAAAAAAAAAA
For B1, the Kd was 0.028 µM.
